For assay [1], the target named is T1, human transferrin receptor 1 (hTfR1) (human, UniProt P02786 89-760, limits assumed).
T1 construct: The selections used the biotinylated ECD domain of hTfR1
As to the kind of experiment: competition ELISA, Fab. (In an ELISA, binding on a coated surface is turned into a signal by an enzyme label.)

Assay [2] concerns the target T2, cynomolgus monkey transferrin receptor 1 (cTfR1) (cynomolgus monkey, UniProt H9EXL1 89-760 (rhesus entry)).
T2 construct: The ELISA against cTfR1 is not described in the text
As to the kind of experiment: competition ELISA, Fab.

For assay [3], the target named is T1, human transferrin receptor 1 (hTfR1). As to the kind of experiment: competition phage ELISA (phage-displayed Fab).
Assay [4] concerns the target T2, cynomolgus monkey transferrin receptor …. As to the kind of experiment: competition phage ELISA (phage-displayed Fab).
In assay [5] the target is T3, his-tagged hTfR1 (Acro Biosystems p/n CD1-H5243) (human, UniProt P02786 89-760).
T3 construct: Bought reagent of the SPR assay
T3 sequence (P02786 89-760 limits assumed): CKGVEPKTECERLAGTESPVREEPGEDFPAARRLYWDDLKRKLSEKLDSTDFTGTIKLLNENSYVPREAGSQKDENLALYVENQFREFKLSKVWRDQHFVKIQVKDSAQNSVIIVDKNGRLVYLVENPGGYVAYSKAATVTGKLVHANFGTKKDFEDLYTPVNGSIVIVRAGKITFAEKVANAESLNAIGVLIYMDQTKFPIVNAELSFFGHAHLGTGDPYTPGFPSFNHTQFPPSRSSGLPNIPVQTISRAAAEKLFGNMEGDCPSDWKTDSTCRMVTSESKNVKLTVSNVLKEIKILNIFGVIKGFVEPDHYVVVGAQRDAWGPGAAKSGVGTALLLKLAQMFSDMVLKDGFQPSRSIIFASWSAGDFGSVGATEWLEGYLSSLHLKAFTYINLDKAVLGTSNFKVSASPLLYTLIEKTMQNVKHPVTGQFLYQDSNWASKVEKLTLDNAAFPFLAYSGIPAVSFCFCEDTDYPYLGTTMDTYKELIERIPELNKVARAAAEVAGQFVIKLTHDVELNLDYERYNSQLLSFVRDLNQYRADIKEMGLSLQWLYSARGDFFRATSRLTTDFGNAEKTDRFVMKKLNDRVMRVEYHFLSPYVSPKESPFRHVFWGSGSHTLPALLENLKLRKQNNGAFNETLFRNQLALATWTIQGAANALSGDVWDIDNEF
As to the kind of experiment: SPR, Biacore X100, His-tagged TfR1 captured by anti-His. As for the experimental part:
Samples were analyzed via Surface Plasmon Resonance (SPR) to determine kinetics against human transferrin receptor 1 (hTfR1). Briefly, a Biacore X100 (Cytiva) was used for SPR measurements using a CM5 chip (carboxymethylated dextran surface, Cytiva p/n BR100399) with anti-histidine antibody irreversibly immobilized on the surface of both flow cells for the reversible capture of his-tagged hTfR1 (Acro Biosystems p/n CD1-H5243). The anti-histidine antibody was irreversibly immobilized via amine coupling using Cytiva provided Amine Coupling Kit (p/n BR100050) and His Capture Kit (p/n 28995056). […] Sample diluent was prepared in house and is composed of 10 mM HEPES buffer pH 7.4, 150 mM NaCl, 3 mM EDTA, and 0.05% Tween 20. Cytiva caps and vials compatible for Biacore X100 are used for sample analysis. Each analysis cycle consists of a capture step followed by sample or blank injection, and finally a regeneration step that removes any sample and hTfR1 on the sensor surface. The capture step was performed at 5 μL/min with a contact time of 24 seconds over the active flow cell only, followed by a fluidics wash with 0.1% Tween 20. Generally, 2 μg/mL hTfR1 is a sufficient concentration to observe adequate hTfR1 captured consistently between cycles. Sample or buffer was injected at 30 μL/min with a contact time of 180 seconds and a dissociation time of 180 seconds followed by a fluidics wash with 0.1% Tween 20. A 10 mM glycine solution at pH 1.5 (provided in His Capture Kit) was used for regeneration at 30 μL/min with a 60 second contact time. A cycle was performed for each sample concentration analyzed along with one cycle repeating one concentration for variability evaluation and 2-3 buffer cycles. Results were analyzed in Biacore Evaluation Software. Buffer cycles were averaged and subtracted from sample injections prior to kinetic fitting. A monovalent or kinetic fit was specified as relevant for the sample analyzed. Accuracy of the fit was evaluated and data points are excluded as applicable. […]
Background: In SPR one partner is held on a chip, and binding of the other changes the refractive index at the surface.

Assay [6] concerns the target T4, his-tagged cTfR1 (Acro Biosystems p/n TFR-C524a) (cynomolgus monkey, UniProt H9EXL1 89-760 (rhesus entry)).
T4 construct: Bought reagent of the SPR assay
Described as above. As for the experimental part:
Samples were analyzed via Surface Plasmon Resonance (SPR) to determine kinetics against cynomolgus monkey transferrin receptor 1 (cTfR1). Briefly, a Biacore X100 (Cytiva) was used for SPR measurements using a CM5 chip (carboxymethylated dextran surface, Cytiva p/n BR100399) with anti-histidine antibody irreversibly immobilized on the surface of both flow cells for the reversible capture of his-tagged cTfR1 (Acro Biosystems p/n TFR-C524a). The anti-histidine antibody was irreversibly immobilized via amine coupling using Cytiva provided Amine Coupling Kit (p/n BR100050) and His Capture Kit (p/n 28995056). […] Sample diluent was prepared in house and is composed of 10 mM HEPES buffer pH 7.4, 150 mM NaCl, 3 mM EDTA, and 0.05% Tween 20. Cytiva caps and vials compatible for Biacore X₁₀₀ were used for sample analysis. Each analysis cycle consists of a capture step followed by sample or blank injection, and finally a regeneration step that removes any sample and cTfR1 on the sensor surface. The capture step was performed at 5 μL/min with a contact time of 24 seconds over the active flow cell only, followed by a fluidics wash with 0.1% Tween 20. Generally, 2 μg/mL hTfR1 was a sufficient concentration to observe adequate hTfR1 captured consistently between cycles. Sample or buffer was injected at 30 μL/min with a contact time of 180 seconds and dissociation time of 180 seconds followed by a fluidics wash with 0.1% Tween 20. A 10 mM glycine solution at pH 1.5 (provided in His Capture Kit) was used for regeneration at 30 μL/min with a 60 second contact time. A cycle was performed for each sample concentration analyzed along with one cycle repeating one concentration for variability evaluation and 2-3 buffer cycles. Results were analyzed in Biacore Evaluation Software. Buffer cycles were averaged and subtracted from sample injections prior to kinetic fitting. A monovalent or kinetic fit was specified as relevant for the sample analyzed. Accuracy of the fit is evaluated and data points are excluded as applicable.

The Kd is the concentration at which binding is half-saturated. By koff is commonly meant a measure of how fast the partners let go of each other. A word on the kon: it is a measure of how fast the partners come together.

T1 sequence (P02786 89-760 limits assumed): as above
T4 sequence (chain, as listed by the source): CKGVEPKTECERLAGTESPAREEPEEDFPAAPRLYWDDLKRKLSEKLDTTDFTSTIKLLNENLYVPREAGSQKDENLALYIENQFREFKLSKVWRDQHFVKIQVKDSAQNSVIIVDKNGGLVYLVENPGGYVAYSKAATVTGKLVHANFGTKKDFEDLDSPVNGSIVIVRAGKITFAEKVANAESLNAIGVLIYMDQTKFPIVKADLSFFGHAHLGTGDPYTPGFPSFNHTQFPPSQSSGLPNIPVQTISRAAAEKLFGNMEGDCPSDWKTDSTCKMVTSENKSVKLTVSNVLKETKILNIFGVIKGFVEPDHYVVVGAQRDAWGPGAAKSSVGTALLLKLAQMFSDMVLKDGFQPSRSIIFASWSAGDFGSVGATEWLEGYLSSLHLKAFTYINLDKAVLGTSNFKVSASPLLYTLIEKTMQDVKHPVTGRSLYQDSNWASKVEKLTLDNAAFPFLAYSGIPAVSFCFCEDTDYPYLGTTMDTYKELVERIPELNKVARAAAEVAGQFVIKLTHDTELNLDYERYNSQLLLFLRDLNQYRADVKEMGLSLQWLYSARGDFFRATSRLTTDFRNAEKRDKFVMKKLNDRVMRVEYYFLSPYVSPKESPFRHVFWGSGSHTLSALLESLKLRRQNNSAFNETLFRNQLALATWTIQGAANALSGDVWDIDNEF
T2 sequence (chain, as listed by the source): as above

B1: Fab0061 (Fab, V domains shown)
VH: EVQLVESGGGLVQPGGSLRLSCATSGYTFTSYWMHWVRQAPGKGLEWVAEINPTNGRVNYIEKFKSRITLSVDKSKSTVYLQMNSLRAEDTAVYYCARGTRAYHYWGQGTLVTVSS
VL: DIQLTQSPSSLSASVGDRVTITCRASDGLYSNLAWYQQKPGKAPKLLIYDATKLASGVPSRFSGSGSGTDYTLTISSLQPEDFATYYCQHFWGTPLTFGQGTKVEIKR
As to B1, the Kd in assay [1] stood at 0.95 nM; in assay [2] it was 5.15 nM; in assay [3], 0.49 nM; in assay [4] it was 1.75 nM; in assay [5], 0.708 nM; in assay [6] it was 1.75 nM. The koff is 0.00101 s⁻¹ in assay [5] and 0.0037 s⁻¹ in assay [6]. The kon in assay [5] was found to be 1.42e+06 M⁻¹ s⁻¹; in assay [6], 2.11e+06 M⁻¹ s⁻¹.

B2: Fab0066 (Fab, V domains shown)
VH: EVQLVESGGGLVQPGGSLRLSCATSGYTFTSYWVHWVRQAPGKGLEWVAEINPTNGRVNYIEKFKSRITLSVDKSKSTVYLQMNSLRAEDTAVYYCARGTRAYHYWGQGTLVTVSS
VL: DIQLTQSPSSLSASVGDRVTITCRASDGLYSNLAWYQQKPGKAPKLLIYDAFNLASGVPSRFSGSGSGTDYTLTISSLQPEDFATYYCQHFWGTPLTFGQGTKVEIKR
Consider B2, for which the Kd in assay [1] was 0.91 nM; in assay [2], 9.4 nM; in assay [3], 0.87 nM; in assay [4], 1.34 nM; in assay [5], 1.41 nM; in assay [6] it was 4.35 nM. Moreover, the koff turned out to be 0.00139 s⁻¹ in assay [5] and 0.00509 s⁻¹ in assay [6]. For the same molecule, the kon in assay [5] is 985000 M⁻¹ s⁻¹; in assay [6] it was 1.17e+06 M⁻¹ s⁻¹.

B3: Fab0063 (Fab, V domains shown)
VH: EVQLVESGGGLVQPGGSLRLSCATSGYTFTSYWMHWVRQAPGKGLEWVAEINPTNGRVNYIEKFKSRITLSVDKSKSTVYLQMNSLRAEDTAVYYCARGTRAYHYWGQGTLVTVSS
VL: DIQLTQSPSSLSASVGDRVTITCRASDGLYSNLAWYQQKPGKAPKLLIYDATRLASGVPSRFSGSGSGTDYTLTISSLQPEDFATYYCQHFWGTPLTFGQGTKVEIKR
For B3, the Kd in assay [1] was found to be 0.67 nM; in assay [2] it was 5.57 nM; in assay [3], 0.48 nM; in assay [4], 2.63 nM; in assay [5] it was 0.598 nM; in assay [6], 2.72 nM. For the same molecule, the figures for the koff in assay [5] and in assay [6] were 0.00105 s⁻¹ and 0.00446 s⁻¹, respectively. Also, the kon in assay [5] amounted to 1.75e+06 M⁻¹ s⁻¹; in assay [6], 1.64e+06 M⁻¹ s⁻¹.

B4: Fab0064 (Fab, V domains shown)
VH: EVQLVESGGGLVQPGGSLRLSCATSGYTFTSYWMHWVRQAPGKGLEWVAEINPTNGRVNYIEKFKSRITLSVDKSKSTVYLQMNSLRAEDTAVYYCARGTRAYHYWGQGTLVTVSS
VL: DIQLTQSPSSLSASVGDRVTITCRASDGLYSNLAWYQQKPGKAPKLLIYDAKNLASGVPSRFSGSGSGTDYTLTISSLQPEDFATYYCQHFWGTPLTFGQGTKVEIKR
B4: the Kd in assay [1] came out at 0.67 nM; in assay [2] it was 5.04 nM; in assay [3], 0.34 nM; in assay [4] it was 2.02 nM; in assay [5], 0.754 nM; in assay [6] it was 2.45 nM. For the same molecule, the koff in assay [5] turned out to be 0.00111 s⁻¹; in assay [6], 0.00367 s⁻¹. Also, the values for the kon in assay [5] and in assay [6] were 1.47e+06 M⁻¹ s⁻¹ and 1.5e+06 M⁻¹ s⁻¹, respectively.

B5: Fab0067 (Fab, V domains shown)
VH: EVQLVESGGGLVQPGGSLRLSCATSGYTFTSYWVHWVRQAPGKGLEWVAEINPTNGRTNYIEKFKSRITLSVDKSKSTVYLQMNSLRAEDTAVYYCARGTRAYHYWGQGTLVTVSS
VL: DIQLTQSPSSLSASVGDRVTITCRASDNLYRNLAWYQQKPGKAPKLLIYDATKLASGVPSRFSGSGSGTDYTLTISSLQPEDFATYYCQHFWGTPLTFGQGTKVEIKR
B5: the Kd is 0.52 nM in assay [1]; 3.02 nM in assay [2]; 0.35 nM in assay [3]; 0.95 nM in assay [4]; 0.543 nM in assay [5]; 1.75 nM in assay [6]. The koff in assay [5] was determined as 0.000804 s⁻¹; in assay [6] it was 0.00328 s⁻¹. Also, the kon in assay [5] was found to be 1.48e+06 M⁻¹ s⁻¹; in assay [6] it was 1.87e+06 M⁻¹ s⁻¹.

B6: Fab0060 (Fab, V domains shown)
VH: EVQLVESGGGLVQPGGSLRLSCATSGYTFTSYWVHWVRQAPGKGLEWVAEINPTNGRTNYIEKFKSRITLSVDKSKSTVYLQMNSLRAEDTAVYYCARGTRAYHYWGQGTLVTVSS
VL: DIQLTQSPSSLSASVGDRVTITCRASDGLYSNLAWYQQKPGKAPKLLIYDATKLASGVPSRFSGSGSGTDYTLTISSLQPEDFATYYCQHFWGTPLTFGQGTKVEIKR
In the case of B6, the Kd in assay [1] came out at 0.81 nM; in assay [2] it was 4.58 nM; in assay [3], 0.49 nM; in assay [4], 1.56 nM; in assay [5] it was 0.907 nM; in assay [6], 2.71 nM. Also, the off-rate (koff) in assay [5] worked out at 0.00111 s⁻¹; in assay [6], 0.00357 s⁻¹. For the same molecule, the kon in assay [5] was 1.22e+06 M⁻¹ s⁻¹; in assay [6], 1.32e+06 M⁻¹ s⁻¹.

B7: Fab0062 (Fab, V domains shown)
VH: EVQLVESGGGLVQPGGSLRLSCATSGYTFTSYWMHWVRQAPGKGLEWVAEINPTNGRVNYIEKFKSRITLSVDKSKSTVYLQMNSLRAEDTAVYYCARGTRAYHYWGQGTLVTVSS
VL: DIQLTQSPSSLSASVGDRVTITCRASDGLYSNLAWYQQKPGKAPKLLIYDAFNLASGVPSRFSGSGSGTDYTLTISSLQPEDFATYYCQHFWGTPLTFGQGTKVEIKR
Turning to B7, the Kd in assay [1] is 1.1 nM; in assay [2] it was 9.14 nM; in assay [3], 0.65 nM; in assay [4] it was 3.48 nM; in assay [5], 0.993 nM; in assay [6], 3.22 nM. The koff in assay [5] is 0.00117 s⁻¹; in assay [6] it was 0.00515 s⁻¹. In addition, the kon in assay [5] is 1.18e+06 M⁻¹ s⁻¹; in assay [6], 1.6e+06 M⁻¹ s⁻¹.

B8: Fab0065 (Fab, V domains shown)
VH: EVQLVESGGGLVQPGGSLRLSCATSGYTFTSYWVHWVRQAPGKGLEWVAEINPTNGRSNYIEKFKSRITLSVDKSKSTVYLQMNSLRAEDTAVYYCARGTRAYHYWGQGTLVTVSS
VL: DIQLTQSPSSLSASVGDRVTITCRASDNLYRNLAWYQQKPGKAPKLLIYDATKLASGVPSRFSGSGSGTDYTLTISSLQPEDFATYYCQHFWGTPLTFGQGTKVEIKR
In the case of B8, the Kd in assay [1] was 0.33 nM; in assay [2], 2.87 nM; in assay [3], 0.26 nM; in assay [4], 0.57 nM; in assay [5] it was 0.413 nM; in assay [6], 1.45 nM. The koff is 0.00071 s⁻¹ in assay [5] and 0.00259 s⁻¹ in assay [6]. Also, the kon stood at 1.72e+06 M⁻¹ s⁻¹ in assay [5] and 1.79e+06 M⁻¹ s⁻¹ in assay [6].

These data come from US20260191981A1 (ARROWHEAD PHARMACEUTICALS, published 2026).
